Where a chain is given by its changes, count along the chain named. Numbers in names are those of the source.
Legend:
GPR41 [1] = assay: Sodium proprionate CRC with biosensor variants in HEK293 cells stably expressing GPR41; format: cell-based; conditions: ratio of RLU of FSK treated well to untreated well
Procedure: (§1) After 24 hours, the cells were transiently transfected with one of the cAMP biosensor variants (Tables 7A and 7B). After another 24 hours, the cells were equilibrated for 2 hours at room temperature using 5 mM EF-luc in CO2 independent media with 10% FBS. Prior to the addition of the compounds, luminescence was measured. The compounds (12× stock in CO2 independent media without FBS) were then added to the cells. For GPR41 expressing cells, sodium proprionate CRC was added. […] The cells were allowed to incubate another 30 minutes and luminescence read on a Varioskan Flash. EC50 values and fold responses were calculated for each of the clones with each of the compounds with or without FSK. In addition, variants […]7 (Example VIIB), 16A2 (Example VIIB) and GS358 were also screened.

GPR41 [2] = biological target: T1, GPR41 (Homo sapiens, UniProt O14843); assay: as above; format: cell-based; conditions: for Fold Response Na proprionate + FSK(1 μM): with FSK 1 μM; for Fold Response Na proprionate: without FSK, ratio of induced to uninduced signal
T1 sequence (O14843 1-346): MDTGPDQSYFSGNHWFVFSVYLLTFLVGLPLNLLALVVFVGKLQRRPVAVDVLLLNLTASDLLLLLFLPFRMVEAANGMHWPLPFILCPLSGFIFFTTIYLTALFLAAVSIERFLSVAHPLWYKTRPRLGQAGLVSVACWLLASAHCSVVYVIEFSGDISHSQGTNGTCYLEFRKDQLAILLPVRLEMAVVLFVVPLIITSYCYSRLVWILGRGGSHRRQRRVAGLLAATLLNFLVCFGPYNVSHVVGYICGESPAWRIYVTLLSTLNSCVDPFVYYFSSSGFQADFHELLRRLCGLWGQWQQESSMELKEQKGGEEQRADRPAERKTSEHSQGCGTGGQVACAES
Procedure: as §1

B1: L9-LY: L9 background with Luc2.0 F518L and RIIβB F407Y; SEQ ID NO:100, 101 (protein)
chain: MPGAVGKVVPFFEAKVVDLDTGKTLGVNQRGELCVRGPMIMSGYVNNPEATNALIDKDGWLHSGDIAYWDEDEHFFIVDRLKSLIKYKGYQVAPAELESILLQHPNIFDAGVAGLPDDDAGELPAAVVVLEHGKTMTEKEIVDYVASQVTTAKKLRGGVVLVDEVPKGLTGKLDARKIREILIKAKKGSIAGCGDAGEGMYESFIESLPFLKSLEFSARLKVVDVIGTKVYNDGEQIIAQGDSADSFFIIESGEVKITMKRKGKSEVEENGAVEIARCSRGQYFGELALVTNKPRAASAHAIGTVKCLAMDVQAFERLLGPCMEIMKRNIATYEEQLVALYGTNMDIVAKNIKKGPAPFYPLEDGTAGEQLHKAMKRYALVPGTIAFTDAHIEVDITYAEYFEMSVRLAEAMKRYGLNTNHRIVVCSENSLQFFMPVLGALFIGVAVAPANDIYNERELLNSMGISQPTVVFVSKKGLQKILNVQKKLPIIQKIIIMDSKTDYQGFQSMYTFVTSHLPPGFNEYDFVPESFDRDKTIALIMNSSGSTGLPKGVALPHRTACVRFSHARDPIFGNQIIPDTAILSVVPFHHGFGMFTTLGYLICGFRVVLMYRFEEELFLRSLQDYKIQSALLVPTLFSFFAKSTLIDKYDLSNLHEIASGGAPLSKEVGEAVAKRFHLPGIRQGYGLTETTSAILITPEGV
In the case of B1, the “Fold Signal Change” value (GPR41 [1]) is reported as 126.7 fold, the “Fold Response Na proprionate + FSK(1 μM)” value (GPR41 [2]) is reported as 5.57 fold and the “Fold Response Na proprionate” value (GPR41 [2]) is reported as 2.07 fold.

B2: 7A1-QY: 7A1 background with Luc2.0 K541Q and RIIβB F407Y; SEQ ID NO:109, 110 (protein)
chain: B1 chain with L161F, K184Q, I190N, A191W, G192D, C193S, D195C, A196S, G197R
With B2 the “Fold Signal Change” value (GPR41 [1]) was 87.6 fold, the “Fold Response Na proprionate + FSK(1 μM)” value (GPR41 [2]) was 161.29 fold and the “Fold Response Na proprionate” value (GPR41 [2]) was 1.68 fold.

B3: L9-LQY: L9 background with Luc2.0 F518L, K541Q and RIIβB F407Y; SEQ ID NO:88, 89 (protein)
chain: B1 chain with K184Q
With B3 the “Fold Signal Change” value (GPR41 [1]) was 136.0 fold, the “Fold Response Na proprionate + FSK(1 μM)” value (GPR41 [2]) was 13.78 fold and the “Fold Response Na proprionate” value (GPR41 [2]) was 1.95 fold.

B4: 7A1-LQY: 7A1 background with Luc2.0 F518L, K541Q and RIIβB F407Y; SEQ ID NO:58, 59 (protein)
chain: B1 chain with K184Q, I190N, A191W, G192D, C193S, D195C, A196S, G197R
For B4, the “Fold Signal Change” value (GPR41 [1]) was 153.1 fold and the “Fold Response Na proprionate” value (GPR41 [2]) was 1.94 fold.

B5: 7A1-ILQ: 7A1 background with Luc2.0 F369I, F518L, K541Q; SEQ ID NO:68, 69 (protein)
chain: B1 chain with F12I, K184Q, I190N, A191W, G192D, C193S, D195C, A196S, G197R, Y341F
In the case of B5, the “Fold Signal Change” value (GPR41 [1]) is reported as 181.8 fold, the “Fold Response Na proprionate + FSK(1 μM)” value (GPR41 [2]) is reported as 5.68 fold and the “Fold Response Na proprionate” value (GPR41 [2]) is reported as 4.09 fold.

B6: 7A1-IQY: 7A1 background with Luc2.0 F369I, K541Q and RIIβB F407Y; SEQ ID NO:29, 30 (protein)
chain: B1 chain with F12I, L161F, K184Q, I190N, A191W, G192D, C193S, D195C, A196S, G197R
In the case of B6, the “Fold Signal Change” value (GPR41 [1]) is reported as 128.0 fold and the “Fold Response Na proprionate” value (GPR41 [2]) is reported as 2.42 fold.

B7: L9-QY: L9 background with Luc2.0 K541Q and RIIβB F407Y; SEQ ID NO:90, 91 (protein)
chain: B1 chain with L161F, K184Q
In the case of B7, the “Fold Signal Change” value (GPR41 [1]) is reported as 61.3 fold, the “Fold Response Na proprionate + FSK(1 μM)” value (GPR41 [2]) is reported as 10.02 fold and the “Fold Response Na proprionate” value (GPR41 [2]) is reported as 2.01 fold.

B8: 7A1-IL: 7A1 background with Luc2.0 F369I, F518L; SEQ ID NO:70, 71 (protein)
chain: B1 chain with F12I, I190N, A191W, G192D, C193S, D195C, A196S, G197R, Y341F
With B8 the “Fold Signal Change” value (GPR41 [1]) was 200.0 fold, the “Fold Response Na proprionate + FSK(1 μM)” value (GPR41 [2]) was 4.36 fold and the “Fold Response Na proprionate” value (GPR41 [2]) was 4.66 fold.

B9: 7A1-Q: 7A1 background with Luc2.0 K541Q; SEQ ID NO:62, 63 (protein)
chain: B1 chain with L161F, K184Q, I190N, A191W, G192D, C193S, D195C, A196S, G197R, Y341F
In the case of B9, the “Fold Signal Change” value (GPR41 [1]) is reported as 71.6 fold, the “Fold Response Na proprionate + FSK(1 μM)” value (GPR41 [2]) is reported as 4.26 fold and the “Fold Response Na proprionate” value (GPR41 [2]) is reported as 2.26 fold.

B10: 7A1-IY: 7A1 background with Luc2.0 F369I and RIIβB F407Y; SEQ ID NO:39, 40 (protein)
chain: B1 chain with F12I, L161F, I190N, A191W, G192D, C193S, D195C, A196S, G197R
With B10 the “Fold Signal Change” value (GPR41 [1]) was 165.7 fold, the “Fold Response Na proprionate + FSK(1 μM)” value (GPR41 [2]) was 8.66 fold and the “Fold Response Na proprionate” value (GPR41 [2]) was 2.81 fold.

B11: 7A1-I: 7A1 background with Luc2.0 F369I; SEQ ID NO:66, 67 (protein)
chain: B1 chain with F12I, L161F, I190N, A191W, G192D, C193S, D195C, A196S, G197R, Y341F
In the case of B11, the “Fold Signal Change” value (GPR41 [1]) is reported as 133.9 fold, the “Fold Response Na proprionate + FSK(1 μM)” value (GPR41 [2]) is reported as 6.60 fold and the “Fold Response Na proprionate” value (GPR41 [2]) is reported as 3.07 fold.

B12: L9-IQY: L9 background with Luc2.0 F369I, K541Q and RIIβB F407Y; SEQ ID NO:78, 79 (protein)
chain: B1 chain with F12I, L161F, K184Q
In the case of B12, the “Fold Signal Change” value (GPR41 [1]) is reported as 96.0 fold and the “Fold Response Na proprionate” value (GPR41 [2]) is reported as 3.82 fold.

B13: L9-LQ: L9 background with Luc2.0 F518L, K541Q; SEQ ID NO:102, 103 (protein)
chain: B1 chain with K184Q, Y341F
For B13, the “Fold Signal Change” value (GPR41 [1]) was 98.6 fold, the “Fold Response Na proprionate + FSK(1 μM)” value (GPR41 [2]) was 7.20 fold and the “Fold Response Na proprionate” value (GPR41 [2]) was 2.83 fold.

B14: 7A1-LQ: 7A1 background with Luc2.0 F518L, K541Q; SEQ ID NO:64, 65 (protein)
chain: B1 chain with K184Q, I190N, A191W, G192D, C193S, D195C, A196S, G197R, Y341F
With B14 the “Fold Signal Change” value (GPR41 [1]) was 85.2 fold, the “Fold Response Na proprionate + FSK(1 μM)” value (GPR41 [2]) was 6.6 fold and the “Fold Response Na proprionate” value (GPR41 [2]) was 2.70 fold.

B15: 7A1-LY: 7A1 background with Luc2.0 F518L and RIIβB F407Y; SEQ ID NO:25, 26 (protein)
chain: B1 chain with I190N, A191W, G192D, C193S, D195C, A196S, G197R
B15 was tested, and the “Fold Signal Change” value (GPR41 [1]) was 141.7 fold, the “Fold Response Na proprionate + FSK(1 μM)” value (GPR41 [2]) was 62.19 fold and the “Fold Response Na proprionate” value (GPR41 [2]) was 2.15 fold.

B16: L9-IY: L9 background with Luc2.0 F369I and RIIβB F407Y; SEQ ID NO:76, 77 (protein)
chain: B1 chain with F12I, L161F
B16 was tested, and the “Fold Signal Change” value (GPR41 [1]) was 86.4 fold and the “Fold Response Na proprionate” value (GPR41 [2]) was 2.53 fold.

B17: 7A1-IQ: 7A1 background with Luc2.0 F369I, K541Q; SEQ ID NO:23, 24 (protein)
chain: MPGAVGKVVPFIEAKVVDLDTGKTLGVNQRGELCVRGPMIMSGYVNNPEATNALIDKDGWLHSGDIAYWDEDEHFFIVDRLKSLIKYKGYQVAPAELESILLQHPNIFDAGVAGLPDDDAGELPAAVVVLEHGKTMTEKEIVDYVASQVTTAKKLRGGVVFVDEVPKGLTGKLDARKIREILIQAKKGSNWDSGCSREGMYESFIESLPFLKSLEFSARLKVVDVIGTKVYNDGEQIIAQGDSADSFFIIESGEVKITMKRKGKSEVEENGAVEIARCSRGQYFGELALVTNKPRAASAHAIGTVKCLAMDVQAFERLLGPCMEIMKRNIATYEEQLVALFGTNMDIVAKNIKKGPAPFYPLEDGTAGEQLHKAMKRYALVPGTIAFTDAHIEVDITYAEYFEMSVRLAEAMKRYGLNTNHRIVVCSENSLQFFMPVLGALFIGVAVAPANDIYNERELLNSMGISQPTVVFVSKKGLQKILNVQKKLPIIQKIIIMDSKTDYQGFQSMYTFVTSHLPPGFNEYDFVPESFDRDKTIALIMNSSGSTGLPKGVALPHRTACVRFSHARDPIFGNQIIPDTAILSVVPFHHGFGMFTTLGYLICGFRVVLMYRFEEELFLRSLQDYKIQSALLVPTLFSFFAKSTLIDKYDLSNLHEIASGGAPLSKEVGEAVAKRFHLPGIRQGYGLTETTSAILITPEGV
For B17, the “Fold Signal Change” value (GPR41 [1]) was 128.0 fold, the “Fold Response Na proprionate + FSK(1 μM)” value (GPR41 [2]) was 3.42 fold and the “Fold Response Na proprionate” value (GPR41 [2]) was 3.66 fold.

From US9879306B2, “Luciferase biosensors for cAMP” (PROMEGA CORPORATION, priority 2008, dated 2018)
